According to patent publication US7439329B2, “GEF-H1b: biomarkers, complexes assays and therapeutic uses thereof” (Sugen, Inc., priority 2002, dated 2008):

Columns and labels:
GEF-H1S [1] = molecular target: T1, GEF-H1S (Homo sapiens, UniProt Q92974, INS962GETLAETWTR); test: Pull-down of GEF-H1 with PAK4 domains and biotinylated PAK4 peptides; format: binding; details: biotinylated PAK4 peptides linked to streptavidin beads
T1 sequence (Q92974 with tags, fused parts or gaps): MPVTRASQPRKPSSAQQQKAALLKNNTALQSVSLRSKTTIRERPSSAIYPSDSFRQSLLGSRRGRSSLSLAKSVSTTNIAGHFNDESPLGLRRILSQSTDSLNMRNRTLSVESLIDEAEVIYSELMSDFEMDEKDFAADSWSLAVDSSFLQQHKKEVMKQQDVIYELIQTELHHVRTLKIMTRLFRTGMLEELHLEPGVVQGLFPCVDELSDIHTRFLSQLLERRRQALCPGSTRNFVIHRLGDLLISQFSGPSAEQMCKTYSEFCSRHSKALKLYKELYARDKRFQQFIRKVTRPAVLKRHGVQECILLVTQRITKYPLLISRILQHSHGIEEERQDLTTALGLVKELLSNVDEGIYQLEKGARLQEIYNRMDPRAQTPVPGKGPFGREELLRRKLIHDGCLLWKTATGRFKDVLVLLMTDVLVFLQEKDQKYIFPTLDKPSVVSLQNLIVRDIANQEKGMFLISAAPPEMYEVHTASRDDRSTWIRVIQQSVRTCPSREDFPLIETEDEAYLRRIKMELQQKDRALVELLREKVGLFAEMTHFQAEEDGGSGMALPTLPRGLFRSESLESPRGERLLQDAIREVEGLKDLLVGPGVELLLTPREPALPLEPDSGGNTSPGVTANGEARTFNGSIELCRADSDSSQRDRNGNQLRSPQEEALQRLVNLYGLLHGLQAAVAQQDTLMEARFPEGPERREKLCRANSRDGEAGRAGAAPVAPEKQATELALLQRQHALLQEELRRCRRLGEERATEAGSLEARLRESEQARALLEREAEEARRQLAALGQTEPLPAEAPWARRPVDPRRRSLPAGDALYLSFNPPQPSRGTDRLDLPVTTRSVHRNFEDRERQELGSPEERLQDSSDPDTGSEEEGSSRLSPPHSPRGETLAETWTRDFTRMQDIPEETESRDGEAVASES
Procedure: (§1) FIG. 1: (SEQ ID NOs 32-34 respectively in order of appearance) Direct binding of GEF-H1 to PAK4. Lysates were prepared from 293T cells over expressing (a) myc tagged PAK4 alleles or subdomains and incubated with GST, GST-GEF-H1 (787-921) and GST-Maguin-like bound to Glutathione beads (1,2,3,4 bead designation) or (b) GFP-GEF-H1 and incubated with PAK4 biotinylated peptides (291-355) and (276-324) linked to streptavidin beads. An equivalent amount of beads and excess lysates (500 ug) were used. Eluates of beads and total lysates were analysed by SDS-PAGE and immunoblotted with myc or GEF-H1 antiserum; (c) represents a PAK4 gene schematic outlining the regions of PAK4 used to identify the GEF-H1 interaction domain (GID). d, alignment of the GID defined by the minimal binding region of PAK4 with PAK5 and PAK6.
(§2) To confirm the in vitro interaction of GEF-H1S with PAK4, bacterially expressed GST-fusion proteins were generated with the identical sequences isolated by phage display, encoding either amino acids 763-921 of GEF-H1S or amino acids 385-555 from the Maguin-2-like protein. These fusion proteins were bound to glutathione beads and utilized in binding assays with 293T lysates expressing exogenous PAK4.
(§3) Biotinylated peptides derived from the N-terminal region of PAK4 sequence were used to further map the GEF-H1 binding site. […]

GEF-H1S [2] = molecular target: T2, GEF-H1S (Homo sapiens, UniProt Q92974, INS962GETLAETWTR); test: as above; format: binding; details: PAK4 domain expressed in 293T lysate; GST-GEF-H1S (aa763-921) on glutathione beads
T2 sequence (Q92974 with tags, fused parts or gaps): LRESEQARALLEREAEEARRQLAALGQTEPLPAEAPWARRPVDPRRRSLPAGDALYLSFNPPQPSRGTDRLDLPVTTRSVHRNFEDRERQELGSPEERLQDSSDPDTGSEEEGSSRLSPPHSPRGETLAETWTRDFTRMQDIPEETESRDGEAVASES
Procedure: as §1, §2, §3

Molecule	interaction with GEF-H1S (GEF-H1S [1])	interaction with GEF-H1S (GEF-H1S [2])
amino acids 291-355: biotinylated PAK4 peptide covering a more C-terminal region (peptide, UniProt O96013 291-355, looked up, fragment, biotin, biotinylated PAK4 peptide covering a more C-terminal region) SPQREPQRVSHEQFRAALQLVVDPGDPRSYLDNFIKIGEGSTGIVCIATVRSSGKLVAVKKMDLR	did not	–
amino acids 1-309: amino-terminal regulatory domain of PAK4 alone (protein, UniProt O96013 1-309, looked up, fragment) MFGKRKKRVEISAPSNFEHRVHTGFDQHEQKFTGLPRQWQSLIEESARRPKPLVDPACITSIQPGAPKTIVRGSKGAKDGALTLLLDEFENMSVTRSNSLRRDSPPPPARARQENGMPEEPATTARGGPGKAGSRGRFAGHSEAGGGSGDRRRAGPEKRPKSSREGSGGPQESSRDKRPLSGPDVGTPQPAGLASGAKLAAGRPFNTYPRADTDHPSRGAQGEPHDVAPNGPSAGGLAIPQSSSSSSRPPTRARGAPSPGVLGPHASEPQLAPPACTPAAPAVPGPPGPRSPQREPQRVSHEQFRAALQ	–	did not stably interact
